Target: T1, recombinant human angiotensin-converting enzyme 2 (human, UniProt Q9BYF1 18-740)
T1 construct: also called rhACE2; hACE2
Test: phage display biopanning
Conditions: both partners purified

T1 sequence (Q9BYF1 18-740): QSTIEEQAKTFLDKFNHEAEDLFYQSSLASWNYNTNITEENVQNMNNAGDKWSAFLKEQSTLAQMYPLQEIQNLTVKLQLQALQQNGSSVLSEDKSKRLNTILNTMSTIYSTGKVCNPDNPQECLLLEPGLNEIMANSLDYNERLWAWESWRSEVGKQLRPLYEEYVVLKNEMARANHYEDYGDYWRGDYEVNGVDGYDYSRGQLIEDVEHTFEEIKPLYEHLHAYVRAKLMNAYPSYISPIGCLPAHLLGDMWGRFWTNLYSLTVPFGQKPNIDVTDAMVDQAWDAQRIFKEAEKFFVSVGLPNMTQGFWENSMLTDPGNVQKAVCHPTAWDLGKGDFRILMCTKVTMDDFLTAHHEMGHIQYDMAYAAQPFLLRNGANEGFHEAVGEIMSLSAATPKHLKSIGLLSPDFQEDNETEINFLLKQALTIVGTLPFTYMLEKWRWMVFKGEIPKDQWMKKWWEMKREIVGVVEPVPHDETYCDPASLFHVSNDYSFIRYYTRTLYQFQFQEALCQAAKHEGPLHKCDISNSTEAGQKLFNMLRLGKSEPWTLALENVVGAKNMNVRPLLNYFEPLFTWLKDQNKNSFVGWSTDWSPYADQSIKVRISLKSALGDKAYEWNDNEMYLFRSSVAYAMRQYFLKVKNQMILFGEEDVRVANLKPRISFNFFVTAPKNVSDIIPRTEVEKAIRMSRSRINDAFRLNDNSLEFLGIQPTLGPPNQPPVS

B1: recombinant Qβ phage QβF6 displaying SARS-CoV spike fragment F6 (S425-525) at the C terminus of the A1 minor coat protein (domain or fragment)
chain: not shown
notes: also called GF6; QF6
  binding result: binds
